Among the data in patent US20260234247A1 (published 2026) are koff, Kd and kon values, retold here.

Numbering of substitutions follows the chain as printed.

To fix the notation:
B1: LK-RB2-27 (antibody, human IgG4 S228P, kappa, V domains shown)
VH: DVKLVESGGGLVKPGGSLKLSCAASGFTFSSYSMSWVRQTPEKRLEWVATISTGGSYTYYPDSVKGRFTISRDNAKNTLYLQMSSLKSEDTAMFYCTRGSMDYWGQGTSVTVSS
VL: DILMTQSPSSMSVSLGDTVSITCHASQDISSNIGWLQQKPGNSFKGLIYHGTNLEDGVPSRFSGSGSGADYSLTISSLESEDFADYYCVQYAQFPYTFGGGTKLEIKR
B2: LK-RB2-34 (antibody, human IgG4 S228P, kappa, V domains shown)
VH: B1 VH with L4V, G55S, P61S
VL: B1 VL with T52I
B3: LK-RB2-28 (antibody, human IgG4 S228P, kappa, V domains shown)
VH: B1 VH with V64M
VL: B1 VL with T22A
B4: LK-RB2-44 (antibody, human IgG4 S228P, kappa, V domains shown)
VH: EVQLVESGGDLVKPGGSLKLSCAASGFTFSSYGMSWVRQTPDKRLEWVATISGGGTYTYYPDSVKGRFTISRDNAKNTLYLQMSSLKSEDTAMYYCASGAMDYWGQGTSVTVSS
VL: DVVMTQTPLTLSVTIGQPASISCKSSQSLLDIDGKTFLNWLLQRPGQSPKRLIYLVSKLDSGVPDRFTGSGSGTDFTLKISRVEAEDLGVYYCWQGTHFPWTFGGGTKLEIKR
B5: LK-RB2-30 (antibody, human IgG4 S228P, kappa, V domains shown)
VH: EVQLVESGGGLVQPGGSLKLSCAASGFTFNTDGMSWVRQTPDKRLELVAIINSNGGSTYYPDSVKGRFTISRDNAKNTLYLQMSSLKSEDTAMYYCAREGSYGSWFAYWGQGTLVTVSA
VL: DIQMTQSPASLSVSVGETVTITCRASENINNNLAWYHQKQGKSPQLLVYAATNLADGVPSRFSGSGSGTQYSLKINSLQSEDFGSYYCQHFWGTPFTFGGGTKLEIKR
B6: LK-RB2-31 (antibody, human IgG4 S228P, kappa, V domains shown)
VH: QVQLQQPGAELVKPGASMKLSCKASGYTFTTYYMYWVKQRPGLGLEWIGGINPSNGGTTFNEKFKNKATLTVDKSSSTAYMQLRSLTSEDSAVYYCTRWRFFDVWGAGTTVTVSS
VL: SIVMTQTPEFLLVSAGDRVTITCKASQSVNNDVAWFQQKPGQSPKLLIYYASNRYTGVPDRFTGSGYGTDFTFTISTVQAEDLAIYFCQQDYSSPPTFGGATKLEIKR
B7: LK-RB2-42 (antibody, human IgG4 S228P, kappa, V domains shown)
VH: EFQLQQSGPELVKPGASVKISCKASGYSFTDYNMNWVKQSNGKSLDWIGIINPKYGTTAYNQKLRDKATLTVDQSSSTAYMQLNSLTSEDSAVYYCASLNWDEGFAYWGQGTLVTVSP
VL: DVLMTQTPLSLPVSLGDQASISCRSSQSIVHSNGNTYLEWYLQKPGQPPKLLIYKVSNRFSGVPERFSGSGSGTDFTLKINRVEAEDLGVYYCFQGSLVPPTFGGGTKLEIKR
B8: LK-RB2-32 (antibody, human IgG4 S228P, kappa, V domains shown)
VH: DVQLQESGPGLVKPSQSLSLTCSVTGYSITSGYYWNWIRQFPGNKLEWMGYISFDGSNHYNPSLRNRISITRDTFKNQFFLKLNSVTTEDTATFYCTRRDYNWFAYWGQGTLVTVSA
VL: DIVLTQSPVTLSVTPGDSVSLSCRASQNINKNLHWYQQRSHESPRLLIKYVSQSISGIPSRFSGSGSGTDFTLSINSVETEDFGMYFCQQSNSWPLTFGAGTKLELRR
B9: LK-RB2-25 (antibody, human IgG4 S228P, kappa, V domains shown)
VH: QVQLKESGPGLVAPSQSLSITCTVSGFSLTSYGVHWVRQPPGKGLEWLGVIWAGGSTKYNSALMSRLSINKDNSKSQVFLKMNSLQTDDTAMYYCARDQMVRSAMDYWGQGTSVTVSS
VL: DIQMIQSPSSMFASLGDRVSLSCRASQGIRGNLDWYQQKPGGTIKLLIYSTSNLNSAVPSRFSGSGSGSDYSLTISNLESEDFADYYCLQRNASPYTFGGGTKLEIKR
B10: LK-RB2-41 (antibody, human IgG4 S228P, kappa, V domains shown)
VH: EVQLQLSGPELVKPGASVKMSCKASGYTFTDYNMHWVKQSHGKSLEWIGYINPNNGGTTYNQKFKGKATLTVNKSSSTAYMELRSLTSEDSAVYYCARAPYYGSSYLLAYWGQGTLVTVSA
VL: DIVMTQSHKFMSTSVGDRVSITCKASQDVSTAVAWYQQKPGQSPKLLIYSASYRYTGVPDRFTGSGSGTDFTFTISSVQAEDLAIYYCQQHYSIPWTFGGGTKLEIKR
B11: LK-RB2-29 (antibody, human IgG4 S228P, kappa, V domains shown)
VH: QVQLQQSGAELARPGASVKLSCKASGYTFTSYWMQWVKQRPGQGLEWIGAIYPGDGDTRYTQKFKGKATLTADKSSSTAYMQLSSLASEDSAVYYCARGYYGSSYADYFDYWGQGTTLTVSS
VL: DIQMTQSPASLSASVGETVTITCRASGNIHNYLAWYQQKQGKSPQLLVYNAKTLADGVPSRFSGSGSGTQYSLKINSLQPEDFGSYYCQHFWSTPPTFGGGTKLEIKR
B12: LK-RB2-47 (antibody, human IgG4 S228P, kappa, V domains shown)
VH: QVQLKQSGPGLVQPSQSLSITCTVSGFSLISYGVHWVRQSPGKGLEWLGVIWSGGSTDYNAAFISRLSISKDNSKSQVFFKMNSLQADDTAIYYCARSFHYHGSTFDYWGQGTTLTVSS
VL: DIQMTQTTSSLSASLGDRVIISCRASQDINNYLNWYQQKPDGTVKLLIYFTSRLHSGVPSSFSGSGSGTDYSLTINNLEQEDIATYFCQQVNTLPYTFGGGTKLEIKR
B13: LK-RB1-9.h2 (antibody, human IgG4, kappa, V domains shown)
VH: QVQLVQSGSELKKPGASVKVSCTASGYTFTTYGMSWVRQAPGQGLKWMGWINTYSGVPTYADDFKGRFVFSLDTSVSTAYLQISSLKAEDTAVYFCARRRRTYHGYLSFDYWGQGTTVTVSS
VL: DIQMTQSPSSLSASVGDRVTITCETSENIYGALNWYQQKPGKAPKLLIYGATNLAEGVPSRFSGSGSGTDYTFTISSLQPEDIATYYCQNVLNTPWTFGGGTKLEIKR
notes: Humanized form of LK-RB1-9
B14: LK-RB1-9.h1 (antibody, human IgG4, kappa, V domains shown)
VH: B13 VH with T23K, K46E, F95Y
VL: B13 VL with Y71F
notes: Humanized form of LK-RB1-9
B15: LK-RB1-9 (antibody, human IgG4 S228P, kappa, V domains shown)
VH: QIQLVQSGPELKKPGETVKISCTASGYTFTTYGMSWVKQAPGKGLKWMGWINTYSGVPTYADDFKGRFAFSLETSASTAYLEINNVKNEDTATYFCARRRRTYHGYLCFDYWGQGTTLTVSS
VL: DIQMTQSPVSLSASVGETVTITCETSENIYGALNWYQRKQGKSPQLLIYGATNLADGMSSRFSGSGSGRQYSLEISSLHPDDVASYYCQNVLNTPWTFGGGTKLEIKR
notes: Anti-LILRB1 antibody from mouse hybridoma; parental antibody of LK-RB1-9.h1 to h3

T4 sequence (Q8N149 24-449 limits assumed): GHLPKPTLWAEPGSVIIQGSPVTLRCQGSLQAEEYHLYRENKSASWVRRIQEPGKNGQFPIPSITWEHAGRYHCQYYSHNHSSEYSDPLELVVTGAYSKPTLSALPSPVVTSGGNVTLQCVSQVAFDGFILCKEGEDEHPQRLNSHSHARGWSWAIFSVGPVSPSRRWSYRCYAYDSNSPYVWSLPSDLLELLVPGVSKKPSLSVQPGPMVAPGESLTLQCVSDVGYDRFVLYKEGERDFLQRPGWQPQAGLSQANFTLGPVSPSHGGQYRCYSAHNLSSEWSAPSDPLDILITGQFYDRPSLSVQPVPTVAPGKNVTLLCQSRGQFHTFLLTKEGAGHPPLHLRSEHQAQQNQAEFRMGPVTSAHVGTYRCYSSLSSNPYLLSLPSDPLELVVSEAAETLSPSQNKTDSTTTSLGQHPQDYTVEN
T2 sequence (Q8NHL6 24-458 limits assumed): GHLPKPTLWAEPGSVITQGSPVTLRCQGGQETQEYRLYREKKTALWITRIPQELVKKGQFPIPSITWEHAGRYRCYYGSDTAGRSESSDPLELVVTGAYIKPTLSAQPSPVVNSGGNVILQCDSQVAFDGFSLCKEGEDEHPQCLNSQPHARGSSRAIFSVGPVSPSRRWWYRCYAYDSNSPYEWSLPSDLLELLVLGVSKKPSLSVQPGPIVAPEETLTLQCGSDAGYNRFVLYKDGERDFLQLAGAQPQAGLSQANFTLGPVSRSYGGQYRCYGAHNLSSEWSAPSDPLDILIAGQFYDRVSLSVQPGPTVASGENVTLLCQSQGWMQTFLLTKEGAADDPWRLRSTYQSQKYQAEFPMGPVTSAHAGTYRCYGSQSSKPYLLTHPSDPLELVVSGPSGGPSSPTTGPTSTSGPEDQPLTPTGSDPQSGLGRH
T3 sequence (Q8NHL6 24-458 limits assumed): as above

For the first assay, the target named is cynomolgus LILRB2 (cynomolgus). The assay is described as follows: Octet off-rate ranking.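 Note: antibody dissociation rate constants against cynomolgus LILRB2 plus human LILRB1, LILRB2, LILRA1 and LILRA2, measured on an Octet instrument to rank binding.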
Chain of cynomolgus LILRB2 (cynomolgus) (chain, as listed by the source): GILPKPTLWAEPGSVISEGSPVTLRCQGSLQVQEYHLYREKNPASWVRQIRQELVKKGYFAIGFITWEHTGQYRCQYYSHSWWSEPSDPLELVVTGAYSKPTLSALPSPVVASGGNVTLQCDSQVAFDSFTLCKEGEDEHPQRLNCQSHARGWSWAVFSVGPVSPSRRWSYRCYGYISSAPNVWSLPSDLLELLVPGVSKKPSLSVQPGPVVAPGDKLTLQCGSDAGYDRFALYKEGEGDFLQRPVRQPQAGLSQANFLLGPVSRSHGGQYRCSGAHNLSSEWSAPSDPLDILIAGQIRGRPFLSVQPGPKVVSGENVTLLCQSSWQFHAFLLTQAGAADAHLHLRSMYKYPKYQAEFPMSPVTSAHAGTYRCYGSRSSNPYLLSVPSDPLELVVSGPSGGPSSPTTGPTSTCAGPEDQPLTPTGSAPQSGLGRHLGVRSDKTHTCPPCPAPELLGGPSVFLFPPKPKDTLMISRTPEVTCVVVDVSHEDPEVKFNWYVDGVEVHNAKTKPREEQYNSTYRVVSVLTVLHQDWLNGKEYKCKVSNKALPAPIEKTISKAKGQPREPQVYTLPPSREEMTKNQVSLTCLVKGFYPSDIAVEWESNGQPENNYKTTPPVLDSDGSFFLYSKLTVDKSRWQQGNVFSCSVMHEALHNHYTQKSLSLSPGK
Description: (§1) Binding affinity of anti-LILRB1 and anti-LILRB2 antibodies against human LILRB1, LILRB2, LILRA1, LILRA2 and cynomolgus LILRB2 was ranked by measuring dissociation rate constant (Kdis) using the Octet system.
By koff is commonly meant a measure of how fast the partners let go of each other. Read a high koff as fast dissociation. The molecule B1 gave a koff of 0.00109 s⁻¹.

Turning to B2, the koff is 0.000673 s⁻¹.

For B3, the koff is 0.00114 s⁻¹.

As to B4, the koff was 0.000346 s⁻¹.

The molecule B5 gave a koff of 2.01e-05 s⁻¹.

The molecule B6 displayed a koff of 0.000291 s⁻¹.

With B7, the off-rate (koff) worked out at 0.000147 s⁻¹.

For B8, the koff stood at 0.00123 s⁻¹.

As for B9, the dissociation rate constant (koff) came to 0.000424 s⁻¹.

Molecule B10 registered a koff of 0.00119 s⁻¹.

B11 yielded a koff of 0.000215 s⁻¹.

Turning to B12, the dissociation rate constant (koff) was determined as 3.03e-05 s⁻¹.

In a further assay the target is T1, human LILRB2 (human, UniProt Q8N423 22-460, limits assumed).
T1 construct: also called hLILRB2
T1 sequence (Q8N423 22-460 limits assumed): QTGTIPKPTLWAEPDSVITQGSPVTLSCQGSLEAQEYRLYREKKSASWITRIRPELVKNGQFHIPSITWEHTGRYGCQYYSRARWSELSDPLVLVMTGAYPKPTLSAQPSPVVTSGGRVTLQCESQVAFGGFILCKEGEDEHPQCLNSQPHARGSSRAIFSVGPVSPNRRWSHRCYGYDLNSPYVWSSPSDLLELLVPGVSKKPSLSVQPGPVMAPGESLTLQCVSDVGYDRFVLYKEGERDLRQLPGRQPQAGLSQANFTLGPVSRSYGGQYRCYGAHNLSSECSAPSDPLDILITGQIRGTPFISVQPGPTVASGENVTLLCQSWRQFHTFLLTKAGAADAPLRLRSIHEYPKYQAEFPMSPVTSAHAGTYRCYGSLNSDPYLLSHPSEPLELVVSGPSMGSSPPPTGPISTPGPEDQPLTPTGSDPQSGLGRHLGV
The assay is described as follows: Octet off-rate ranking.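 Note: antibody dissociation rate constants against cynomolgus LILRB2 plus human LILRB1, LILRB2, LILRA1 and LILRA2, measured on an Octet instrument to rank binding.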
Description: as §1
The molecule B8 displayed a dissociation rate constant (koff) of 0.00291 s⁻¹.

The molecule B10 returned a dissociation rate constant (koff) of 6.33e-06 s⁻¹.

Another assay addresses T2, human LILRB1 (human, UniProt Q8NHL6 24-458, limits assumed).
T2 construct: also called hLILRB1
The assay is described as follows: Octet off-rate ranking.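 Note: antibody dissociation rate constants against cynomolgus LILRB2 plus human LILRB1, LILRB2, LILRA1 and LILRA2, measured on an Octet instrument to rank binding.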 For orientation: In BLI a coated tip is dipped into the sample, and binding shifts an interference pattern.
Description: as §1
As to B6, the koff is 0.00167 s⁻¹.

B8 returned an off-rate constant (koff) of 0.00186 s⁻¹.

Turning to B9, the koff was 0.000609 s⁻¹.

The next assay has as its target T3, human LILRB1-his (human, UniProt Q8NHL6 24-458, limits assumed).
T3 construct: Analyte of the Biacore run; not shown: His tag
Nature of the assay: SPR (Biacore 8K), antibody captured via Fc, LILRB1-his as analyte, 1:1 model.
The Kd is the free concentration of one partner at which half of the binding sites on the other are occupied at equilibrium, for simple one-to-one binding. A lower Kd goes with a tighter complex. The term kon denotes a measure of how fast the partners come together. Lower therefore signals slow association. As for B13, the Kd was 0.927 nM, the koff stood at 0.000224 s⁻¹ and the on-rate (kon) was determined as 241000 M⁻¹ s⁻¹.

In the case of B14, the Kd is 0.825 nM, the koff is 0.000209 s⁻¹ and the association rate constant (kon) amounted to 253000 M⁻¹ s⁻¹.

Regarding B15, the Kd worked out at 0.836 nM, the off-rate constant (koff) came to 0.000255 s⁻¹ and the kon is 305000 M⁻¹ s⁻¹.

The next assay concerns the target T4, human LILRA2-his (human, UniProt Q8N149 24-449, limits assumed).
T4 construct: Analyte of the Biacore run; not shown: His tag
Nature of the assay: SPR (Biacore 8K), antibody captured via Fc, LILRA2-his as analyte, 1:1 model. For orientation: Surface plasmon resonance follows binding to a sensor surface in real time, without labels.
Regarding B13, the affinity, expressed as Kd, was 6.97 nM; the koff came to 0.00132 s⁻¹; the on-rate (kon) was determined as 189000 M⁻¹ s⁻¹.

As to B14, the Kd was 10.4 nM, the off-rate (koff) was 0.00219 s⁻¹ and the on-rate constant (kon) stood at 210000 M⁻¹ s⁻¹.

B15 displayed a Kd of 13.3 nM, a koff of 0.00286 s⁻¹ and an on-rate (kon) of 215000 M⁻¹ s⁻¹.
